# T1: p105 (Homo sapiens, UniProt P19838)
# T1 sequence (P19838 1-968): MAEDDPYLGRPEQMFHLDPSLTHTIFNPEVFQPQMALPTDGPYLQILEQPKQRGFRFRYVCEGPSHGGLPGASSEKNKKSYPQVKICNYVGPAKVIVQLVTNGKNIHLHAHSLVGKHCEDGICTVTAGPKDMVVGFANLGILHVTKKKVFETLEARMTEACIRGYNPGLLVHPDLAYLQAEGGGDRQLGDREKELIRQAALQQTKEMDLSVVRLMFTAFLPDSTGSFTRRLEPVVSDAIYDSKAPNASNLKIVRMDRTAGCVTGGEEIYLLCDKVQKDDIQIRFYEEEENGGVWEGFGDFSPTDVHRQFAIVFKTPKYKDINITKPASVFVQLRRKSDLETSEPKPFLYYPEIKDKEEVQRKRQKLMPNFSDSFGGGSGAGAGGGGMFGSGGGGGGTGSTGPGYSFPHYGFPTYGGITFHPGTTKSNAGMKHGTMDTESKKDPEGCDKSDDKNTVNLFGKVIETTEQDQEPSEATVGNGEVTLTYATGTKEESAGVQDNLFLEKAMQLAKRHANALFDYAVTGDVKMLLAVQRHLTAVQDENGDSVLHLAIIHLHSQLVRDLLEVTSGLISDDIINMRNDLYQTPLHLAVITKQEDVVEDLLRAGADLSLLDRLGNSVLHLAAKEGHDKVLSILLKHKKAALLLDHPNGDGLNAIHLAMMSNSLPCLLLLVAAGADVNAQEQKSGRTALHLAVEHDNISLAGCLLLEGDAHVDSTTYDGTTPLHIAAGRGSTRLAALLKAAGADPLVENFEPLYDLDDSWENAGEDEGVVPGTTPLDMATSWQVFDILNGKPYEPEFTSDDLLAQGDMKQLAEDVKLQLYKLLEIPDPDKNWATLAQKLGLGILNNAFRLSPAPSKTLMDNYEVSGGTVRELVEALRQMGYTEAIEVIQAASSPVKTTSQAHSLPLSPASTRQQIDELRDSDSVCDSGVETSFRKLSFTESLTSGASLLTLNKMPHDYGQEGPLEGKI
# B1: KPC1Δ1-973: KPC1 species that lacks the amino acids 1-973 (protein, UniProt Q5XPI4 974-1314, looked up, fragment)
# chain: WRGCGFGYRYTRLPHLLKTKLEDANLPSLQKPCPSTLLQQHMADLLQQGPDVAPSFLNSVLNQLNWAFSEFIGMIQEIQQAAERLERNFVDSRQLKVCATCFDLSVSLLRVLEMTITLVPEIFLDWTRPTSEMLLRRLAQLLNQVLNRVTAERNLFDRVVTLRLPGLESVDHYPILVAVTGILVQLLVRGPASEREQATSVLLADPCFQLRSICYLLGQPEPPAPGTALPAPDRKRFSLQSYADYISADELAQVEQMLAHLTSASAQAAAASLPTSEEDLCPICYAHPISAVFQPCGHKSCKACINQHLMNNKDCFFCKTTIVSVEDWEKGANTSTTSSAA
# B2: KPC1Δ1-967: KPC1 species that lacks amino acids 1-967, SEQ ID NO: 5 (protein)
# chain: WILVRLWRGCGFGYRYTRLPHLLKTKLEDANLPSLQKPCPSTLLQQHMADLLQQGPDVAPSFLNSVLNQLNWAFSEFIGMIQEIQQAAERLERNFVDSRQLKVCATCFDLSVSLLRVLEMTITLVPEIFLDWTRPTSEMLLRRLAQLLNQVLNRVTAERNLFDRVVTLRLPGLESVDHYPILVAVTGILVQLLVRGPASEREQATSVLLADPCFQLRSICYLLGQPEPPAPGTALPAPDRKRFSLQSYADYISADELAQVEQMLAHLTSASAQAAAASLPTSEEDLCPICYAHPISAVFQPCGHKSCKACINQHLMNNKDCFFCKTTIVSVEDWEKGANTSTTSSAA
# B3: KPC1Δ1-1017: KPC1 species that lacks the amino acids 1-1017 (protein, UniProt Q5XPI4 1018-1314, looked up, fragment)
# chain: LLQQGPDVAPSFLNSVLNQLNWAFSEFIGMIQEIQQAAERLERNFVDSRQLKVCATCFDLSVSLLRVLEMTITLVPEIFLDWTRPTSEMLLRRLAQLLNQVLNRVTAERNLFDRVVTLRLPGLESVDHYPILVAVTGILVQLLVRGPASEREQATSVLLADPCFQLRSICYLLGQPEPPAPGTALPAPDRKRFSLQSYADYISADELAQVEQMLAHLTSASAQAAAASLPTSEEDLCPICYAHPISAVFQPCGHKSCKACINQHLMNNKDCFFCKTTIVSVEDWEKGANTSTTSSAA
# B4: WILVRLW-KPC1Δ1-1253: KPC1 lacking amino acids 1-1253 with WILVRLW at its N-terminus, SEQ ID NO: 8 (protein)
# chain: WILVRLWCPICYAHPISAVFQPCGHKSCKACINQHLMNNKDCFFCKTTIVSVEDWEKGANTSTTSSAA
# B5: KPC1ΔCC: KPC1 species that lacks the amino acids 1041-1061 (coiled coil domain) (protein)
# chain: MASKGAGMSFSRKSYRLTSDAEKSRVTGIVQEKLLNDYLNRIFSSSEHAPPAATSRKPLNFQNLPEHLDQLLQVDNEEEESQGQVEGRLGPSTVVLDHTGGFEGLLLVDDDLLGVIGHSNFGTIRSTTCVYKGKWLYEVLISSQGLMQIGWCTISCRFNQEEGVGDTHNSYAYDGNRVRKWNVTTTNYGKAWAAGDIVSCLIDLDDGTLSFCLNGVSLGTAFENLSRGLGMAYFPAISLSFKESVAFNFGSRPLRYPVAGYRPLQDPPSADLVRAQRLLGCFRAVLSVELDPVEGRLLDKESSKWRLRGQPTVLLTLAHIFHHFAPLLRKVYLVEAVLMSFLLGIVEKGTPTQAQSVVHQVLDLLWLFMEDYEVQDCLKQLMMSLLRLYRFSPIVPDLGLQIHYLRLTIAILRHEKSRKFLLSNVLFDVLRSVVFFYIKSPLRVEEAGLQELIPTTWWPHCSSREGKESTEMKEETAEERLRRRAYERGCQRLRKRIEVVEELQVQILKLLLDNKDDNGGEASRYIFLTKFRKFLQENASGRGNMPMLCPPEYMVCFLHRLISALRYYWDEYKASNPHASFSEEAYIPPQVFYNGKVDYFDLQRLGGLLSHLRKTLKDDLASKANIVIDPLELQSTAMDDLDEDEEPAPAMAQRPMQALAVGGPLPLPRPGWLSSPTLGRANRFLSTAAVSLMTPRRPLSTSEKVKVRTLSVEQRTREDIEGSHWNEGLLLGRPPEEPEQPLTENSLLEVLDGAVMMYNLSVHQQLGKMVGVSDDVNEYAMALRDTEDKLRRCPKRRKDILAELTKSQKVFSEKLDHLSRRLAWVHATVYSQEKMLDIYWLLRVCLRTIEHGDRTGSLFAFMPEFYLSVAINSYSALKNYFGPVHSMEELPGYEETLTRLAAILAKHFADARIVGTDIRDSLMQALASYVCYPHSLRAVERIPEEQRIAMVRNLLAPYEQRPWAQTNWILVRLWRGCGFGYRYTRLPHLLKTKLEDANLPSLQKPCPSTLLQQHMADLLQQGPDVAPSFLNSVLNQLNWAFVDSRQLKVCATCFDLSVSLLRVLEMTITLVPEIFLDWTRPTSEMLLRRLAQLLNQVLNRVTAERNLFDRVVTLRLPGLESVDHYPILVAVTGILVQLLVRGPASEREQATSVLLADPCFQLRSICYLLGQPEPPAPGTALPAPDRKRFSLQSYADYISADELAQVEQMLAHLTSASAQAAAASLPTSEEDLCPICYAHPISAVFQPCGHKSCKACINQHLMNNKDCFFCKTTIVSVEDWEKGANTSTTSSAA
# Target: T1, p105
# Test: Co-immunoprecipitation (Co-IP) of KPC1 species with p105-HA from transfected HEK293T cells
# Assay type: binding
# Parameters: HA; expressed in transfected cells; host or cells: HEK293T
# Conditions: anti-FLAG immunoprecipitation, anti-NF-κB1 western blot
# From the text: FIG. 1B is a western blot showing the following: HEK293T cells were transfected with cDNAs coding for p105-HA (lanes 1-6), along with the different KPC1 species as following: W.T KPC1 (lane 1), KPC1Δ969-1314 (lane 2), KPC1Δ1-438 & 1039-1314 (lane 3), KPC1Δ1-967 (lane 4) and KPC1Δ1-1042 (lane 5). Lane 6 was transfected with an empty vector. KPC1 species were immunoprecipitated using immobilized FLAG antibodies, resolved by SDS-page, and NF-κB1 and KPC1 proteins were visualized by anti-NF-κB1 (FIG. 1B (upper)) and anti-FLAG (FIG. 1B (bottom)) antibodies, respectively. 10% of the total cell lysate was analyzed for the expression of p105-HA.
# FIG. 2B is a western blot. HEK293T cells were transfected with cDNAs coding for p105-HA (lanes 1-7), along with different KPC1 species as following: WT KPC1 (lane 1), KPC1Δ1-967 (lane 2), KPC1Δ967-1043 (lane 3), KPC1Δ1-973 (lane 4), KPC1Δ1-1017 (lane 5) and KPC1ΔCC domain (lane 6). Lane 7 represents cells that were transfected with empty vector. KPC1 species were immunoprecipitated using immobilized FLAG antibodies, resolved by SDS-page. NF-κB1 and KPC1 proteins were visualized with anti-NF-κB1 (FIG. 2B (i)) and anti-FLAG (FIG. 2B (ii)) antibodies, respectively. 10% of the total cell lysate was analyzed for the expression of p105-HA. FIGS. 3A and 3B: FIG. 3A is a schematic representation of KPC1 species used in the experiment shown in FIG. 3B that was directed to evaluating the region of KPC1 that is responsible for the interaction with p105.
# FIG. 3B is a western blot. HEK293T cells were transfected with cDNAs coding for p105-HA (lanes 1-12), along with different KPC1 species as following: KPC1-FLAG (lane 1), WILVRLW-KPC1 Δ 1-1253 (SEQ ID NO: 8) (lane 2), ILVRLW-KPC1 Δ 1-1253 (SEQ ID NO: 10) (lane 3), LVRLW-KPC1 Δ 1-1253 (SEQ ID NO: 11) (lane 4), VRLW-KPC1 Δ 1-1253 (lane 5) (SEQ ID NO: 12), RLW-KPC1 Δ 1-1253 (lane 6) SEQ ID NO:13), KPC1 Δ 1-1253 (lane 7), WILVRL-KPC1 Δ 1-1253 (lane 8) (SEQ ID NO: 14), WILVR-KPC1 Δ 1-1253 (SEQ ID NO: 15) (lane 9), WILV-KPC1 Δ 1-1253 (SEQ ID NO: 16) (lane 10), WIL-KPC1 Δ 1-1253 (SEQ ID NO: 17 (lane 11). Lane 12 represents cells that were transfected with empty vector. KPC1 species were immunoprecipitated using immobilized FLAG antibodies, resolved by SDS-page. NF-κB1 and KPC1 proteins were visualized by anti-NF-κB1 (FIG. 3B, (i, ii) and anti-FLAG (FIG. 3B, (iii) antibodies, respectively. 10% of the total cell lysate was analyzed for the expression of p105-HA (FIG. 3B, (ii)).
# HEK293T cells were transiently transfected with the various KPC1 species along with p105-HA using the j etPEI reagent. 48 hours after transfection, the cells were harvested and lysed with RIPA buffer [150 mM NaCl, 0.5% sodium deoxycholate, 50 mM Tris-HCl (pH 8.0), 0.1% SDS, and 1% NP-40, supplemented with freshly added protease inhibitors mixture]. KPC1 species proteins were immunoprecipitated with immobilized anti-FLAG, with subsequent washing of the beads five times with RIPA buffer. The immunoprecipitated proteins were resolved by SDS-PAGE (10%, FIGS. 1A, 1B, 2A and 2B, with a gel gradient, of 4-20%; FIGS. 3A and 3B), and blotted onto nitrocellulose (FIGS. 1A, 1B, 2A and 2B) or PVDF (FIGS. 3A and 3B) membranes. p105 and KPC1 species were visualized using anti-NF-κB1 or anti-FLAG antibodies, respectively.
# Identification of the region of KPC1 that is responsible for the interaction with p105. In order to identify the region of KPC1 that is responsible for the interaction with p105, several truncated segments of the DNA sequence of the KPC1 protein were cloned. The truncated segments were inserted into the pCAGGS expression vector to analyze their interaction with p105 by co-immunoprecipitation (Co-IP) from cells. HEK 293T cells were transfected with cDNAs coding for p105-HA, along with different fragments of KPC1 (FIG. 1A). Species of KPC1 were immunoprecipitated using an immobilized anti-Flag antibody. […]
row,Molecule,interaction with p105 (Co-IP)
1,B1,the interaction between these two proteins was abrogated
2,B2,an interaction was observed
3,B3,did not interact with p105
4,B4,An interaction was observed
5,B5,An interaction

# Source: patent US12421510B2, “Peptide, a complex and a method for treating cancer” (TECHNION RESEARCH & DEVELOPMENT FOUNDATION LIMITED, priority 2018, dated 2025)
